Values belong to the molecule of their own block, whether it stands above or below them.
Tests used:
[1] = target: Nucleosome Assembly Protein 1 (Nap1) (budding yeast) (UniProt P25293); experiment: SEC-MALS; 500 mM NaCl, 20 mM HEPES-KOH pH 7.5; MAbPac SEC-1 column (Figure 1) or Superdex S200 10/300 (Figure 7)
[2] = target: Nucleosome Assembly Protein 1 (Nap1) (budding yeast) (UniProt P25293); experiment: SEC-MALS; 150 mM NaCl, 20 mM HEPES-KOH pH 7.5; MAbPac SEC-1 column (Figure 1) or Superdex S200 10/300 (Figures 5 and 7)
[3] = target: Nap1 L120C dimers labelled with Maleimide-PEG2-Biotin (budding yeast) (UniProt P25293); experiment: BLI; biotinylated chaperone dimers on streptavidin biosensors, unlabelled wild-type chaperone in solution; 150 mM NaCl, 20 mM HEPES.KOH pH 7.5, 0.1% BSA; steady state, one site saturation fit; two dimers to tetramer
[4] = target: Vps75 lacking the unstructured C-terminal domain (residues 1–223) (budding yeast) (UniProt P53853); experiment: SAXS; 500 mM NaCl, 0.5 to 10 mg/ml, 10°C
[5] = target: Vps75 lacking the unstructured C-terminal domain (residues 1–223) (budding yeast) (UniProt P53853); experiment: SEC-MALS; 500 mM NaCl, 20 mM HEPES-KOH pH 7.5; MAbPac SEC-1 column (Figure 1) or Superdex S200 10/300 (Figure 7)
[6] = target: Vps75 lacking the unstructured C-terminal domain (residues 1–223) (budding yeast) (UniProt P53853); experiment: SEC-MALS; 150 mM NaCl, 20 mM HEPES-KOH pH 7.5; MAbPac SEC-1 column (Figure 1) or Superdex S200 10/300 (Figures 5 and 7)
[7] = target: Vps75, full-length (budding yeast) (UniProt P53853); experiment: SAXS; 500 mM NaCl, 0.5 to 10 mg/ml, 10°C
[8] = target: Vps75, full-length (budding yeast) (UniProt P53853); experiment: SAXS; 150 mM NaCl, 0.5 to 10 mg/ml, 10°C
[9] = target: Vps75, full-length (budding yeast) (UniProt P53853); experiment: SEC-MALS; 500 mM NaCl, 20 mM HEPES-KOH pH 7.5; MAbPac SEC-1 column (Figure 1) or Superdex S200 10/300 (Figure 7)
[10] = target: Vps75, full-length (budding yeast) (UniProt P53853); experiment: SEC-MALS; 150 mM NaCl, 20 mM HEPES-KOH pH 7.5; MAbPac SEC-1 column (Figure 1) or Superdex S200 10/300 (Figures 5 and 7)
[11] = target: Vps75 Y35C dimers labelled with Maleimide-PEG2-Biotin (budding yeast) (UniProt P53853); experiment: BLI; biotinylated chaperone dimers on streptavidin biosensors, unlabelled wild-type chaperone in solution; 150 mM NaCl, 20 mM HEPES.KOH pH 7.5, 0.1% BSA; steady state, one site saturation fit; two dimers to tetramer
[12] = target: the molecule itself; experiment: PELDOR; spin-labelled protein, 100–150 μM dimer, 150 mM NaCl, 20 mM HEPES-KOH pH 7.5 in deuterium oxide, mixed 1:1 with D8-glycerol; tetrameric conditions
[13] = target: the molecule itself; experiment: SEC-MALS; 150 mM NaCl, 20 mM HEPES-KOH pH 7.5; MAbPac SEC-1 column (Figure 1) or Superdex S200 10/300 (Figures 5 and 7)
[14] = target: the molecule itself; experiment: SEC-MALS; run at 500 mM NaCl after disulphide cross-linking via K78C at 150 mM NaCl
[15] = target: the molecule itself; experiment: PELDOR; spin-labelled protein, 100–150 μM dimer, 500 mM NaCl, 20 mM HEPES-KOH pH 7.5 in deuterium oxide, mixed 1:1 with D8-glycerol; dimeric conditions

- stoichiometry N [1]: 2
- stoichiometry N [2]: 4
- Kd [3]: 3.57 µM
Molecule: Nucleosome Assembly Protein 1 (Nap1) (from UniProt P25293 1-417) (natural protein)

- stoichiometry N [4]: 2
- stoichiometry N [5]: 2
- stoichiometry N [6]: 4
Molecule: Vps75 lacking the unstructured C-terminal domain (residues 1–223) (from UniProt P53853 1-223) (domain or fragment)

- stoichiometry N [7]: 2
- stoichiometry N [8]: 4
- stoichiometry N [9]: 2
- stoichiometry N [10]: 4
- Kd [11]: 0.6 µM
Molecule: Vps75, full-length (from UniProt P53853 1-264) (natural protein)

B1: Vps75 K117R1 (natural protein, budding yeast, UniProt P53853 1-264, looked up)
chain: MMSDQENENEHAKAFLGLAKAEEEVDAIEREVELYRLNKMKPVYEKRDAYIDEIAEFWKIVLSQHVSFANYIRASDFKYIDTIDKIKVEWLALESEMYDTRDFSITFHFHGIEGDFCEQQVTKVFQIKKGKDDQEDGILTSEPVPIEWPQSYDSINPDLIKDKRSPEGKKKYRQGMKTIFGWFRWTGLKPGKEFPHGDSLASLFSEEIYPFAVKYYAEAQRDLEDEEGESGLSADGDSEDDDGSLGEVDLPLSDEEPSSKKRKV
modifications: MTSL spin label (R1) on cysteine 117; deuterated protein
notes: Vps75 of budding yeast, open reading frame, unique cysteine at position 117; also called Vps75 K117C; not shown: His6, N-terminal, cleaved
- stoichiometry N [12]: 4

B2: Vps75 K169E (natural protein, budding yeast, UniProt P53853 1-264, looked up)
chain: MMSDQENENEHAKAFLGLAKAEEEVDAIEREVELYRLNKMKPVYEKRDAYIDEIAEFWKIVLSQHVSFANYIRASDFKYIDTIDKIKVEWLALESEMYDTRDFSITFHFHGIEGDFKEQQVTKVFQIKKGKDDQEDGILTSEPVPIEWPQSYDSINPDLIKDKRSPEGEKKYRQGMKTIFGWFRWTGLKPGKEFPHGDSLASLFSEEIYPFAVKYYAEAQRDLEDEEGESGLSADGDSEDDDGSLGEVDLPLSDEEPSSKKRKV
notes: Vps75 of budding yeast, point mutant in the C21A/C212A construct
- stoichiometry N [13]: ~2

B3: Vps75 E56R1 (natural protein, budding yeast, UniProt P53853 1-264, looked up)
chain: MMSDQENENEHAKAFLGLAKAEEEVDAIEREVELYRLNKMKPVYEKRDAYIDEIACFWKIVLSQHVSFANYIRASDFKYIDTIDKIKVEWLALESEMYDTRDFSITFHFHGIEGDFKEQQVTKVFQIKKGKDDQEDGILTSEPVPIEWPQSYDSINPDLIKDKRSPEGKKKYRQGMKTIFGWFRWTGLKPGKEFPHGDSLASLFSEEIYPFAVKYYAEAQRDLEDEEGESGLSADGDSEDDDGSLGEVDLPLSDEEPSSKKRKV
modifications: MTSL spin label (R1) on cysteine 56; deuterated protein
notes: Vps75 of budding yeast, open reading frame, unique cysteine at position 56; also called Vps75 E56C; not shown: His6, N-terminal, cleaved
- stoichiometry N [12]: 4

B4: Vps75 triple mutant protein (R164D, K169E, K170E) (natural protein, budding yeast, UniProt P53853 1-264, looked up)
chain: MMSDQENENEHAKAFLGLAKAEEEVDAIEREVELYRLNKMKPVYEKRDAYIDEIAEFWKIVLSQHVSFANYIRASDFKYIDTIDKIKVEWLALESEMYDTRDFSITFHFHGIEGDFKEQQVTKVFQIKKGKDDQEDGILTSEPVPIEWPQSYDSINPDLIKDKDSPEGEEKYRQGMKTIFGWFRWTGLKPGKEFPHGDSLASLFSEEIYPFAVKYYAEAQRDLEDEEGESGLSADGDSEDDDGSLGEVDLPLSDEEPSSKKRKV
notes: Vps75 of budding yeast, mutant in the C21A/C212A construct
- stoichiometry N [13]: 2

B5: Vps75 R164D (natural protein, budding yeast, UniProt P53853 1-264, looked up)
chain: MMSDQENENEHAKAFLGLAKAEEEVDAIEREVELYRLNKMKPVYEKRDAYIDEIAEFWKIVLSQHVSFANYIRASDFKYIDTIDKIKVEWLALESEMYDTRDFSITFHFHGIEGDFKEQQVTKVFQIKKGKDDQEDGILTSEPVPIEWPQSYDSINPDLIKDKDSPEGKKKYRQGMKTIFGWFRWTGLKPGKEFPHGDSLASLFSEEIYPFAVKYYAEAQRDLEDEEGESGLSADGDSEDDDGSLGEVDLPLSDEEPSSKKRKV
notes: as for B2
- stoichiometry N [13]: ~2

B6: Vps75 K78C (natural protein, budding yeast, UniProt P53853 1-264, looked up)
chain: MMSDQENENEHAKAFLGLAKAEEEVDAIEREVELYRLNKMKPVYEKRDAYIDEIAEFWKIVLSQHVSFANYIRASDFCYIDTIDKIKVEWLALESEMYDTRDFSITFHFHGIEGDFKEQQVTKVFQIKKGKDDQEDGILTSEPVPIEWPQSYDSINPDLIKDKRSPEGKKKYRQGMKTIFGWFRWTGLKPGKEFPHGDSLASLFSEEIYPFAVKYYAEAQRDLEDEEGESGLSADGDSEDDDGSLGEVDLPLSDEEPSSKKRKV
modifications: disulphide between cysteine 78 of opposing dimers after oxidation with Cu (II) phenanthroline
notes: as for B2
- stoichiometry N [14]: 4

B7: Vps75 K170E (natural protein, budding yeast, UniProt P53853 1-264, looked up)
chain: MMSDQENENEHAKAFLGLAKAEEEVDAIEREVELYRLNKMKPVYEKRDAYIDEIAEFWKIVLSQHVSFANYIRASDFKYIDTIDKIKVEWLALESEMYDTRDFSITFHFHGIEGDFKEQQVTKVFQIKKGKDDQEDGILTSEPVPIEWPQSYDSINPDLIKDKRSPEGKEKYRQGMKTIFGWFRWTGLKPGKEFPHGDSLASLFSEEIYPFAVKYYAEAQRDLEDEEGESGLSADGDSEDDDGSLGEVDLPLSDEEPSSKKRKV
notes: as for B2
- stoichiometry N [13]: ~2

B8: Nap1 PPP mutant (R301P, T302P, K305P) (natural protein)
chain: MSDPIRTKPKSSMQIDNAPTPHNTPASVLNPSYLKNGNPVRAQAQEQDDKIGTINEEDILANQPLLLQSIQDRLGSLVGQDSGYVGGLPKNVKEKLLSLKTLQSELFEVEKEFQVEMFELENKFLQKYKPIWEQRSRIISGQEQPKPEQIAKGQEIVESLNETELLVDEEEKAQNDSEEEQVKGIPSFWLTALENLPIVADTITDRDAEVLEYLQDIGLEYLTDGRPGFKLLFRFDSSANPFFTNDILAKTYFYQKELGYSGDFIYDHAEGAEISWKDNAHNVTVDLEMRKQRNKTTKQVPPIEPITPIESFFNFFDPPKIQNEDQDEELEEDLEERLALDYSIGEQLKDKLIPRAVDWFTGAALEFEFEEDEEEADEDEDEEEDDDHGLEDDDGESAEEQDDFAGRPEQAPEAKQS
- stoichiometry N [13]: ~2

B9: Nap1 T251R1 (natural protein, budding yeast, UniProt P25293 1-417, looked up)
chain: MSDPIRTKPKSSMQIDNAPTPHNTPASVLNPSYLKNGNPVRAQAQEQDDKIGTINEEDILANQPLLLQSIQDRLGSLVGQDSGYVGGLPKNVKEKLLSLKTLQSELFEVEKEFQVEMFELENKFLQKYKPIWEQRSRIISGQEQPKPEQIAKGQEIVESLNETELLVDEEEKAQNDSEEEQVKGIPSFWLTALENLPIVADTITDRDAEVLEYLQDIGLEYLTDGRPGFKLLFRFDSSANPFFTNDILAKCYFYQKELGYSGDFIYDHAEGAEISWKDNAHNVTVDLEMRKQRNKTTKQVRTIEKITPIESFFNFFDPPKIQNEDQDEELEEDLEERLALDYSIGEQLKDKLIPRAVDWFTGAALEFEFEEDEEEADEDEDEEEDDDHGLEDDDGESAEEQDDFAGRPEQAPEAKQS
modifications: MTSL spin label (R1) on cysteine 251; deuterated protein
notes: Nap1 of budding yeast, open reading frame, unique cysteine at position 251; also called Nap1 T251C; not shown: His6, N-terminal, cleaved
- stoichiometry N [15]: 2
- stoichiometry N [12]: 4

B10: Nap1 E209R1 (natural protein, budding yeast, UniProt P25293 1-417, looked up)
chain: MSDPIRTKPKSSMQIDNAPTPHNTPASVLNPSYLKNGNPVRAQAQEQDDKIGTINEEDILANQPLLLQSIQDRLGSLVGQDSGYVGGLPKNVKEKLLSLKTLQSELFEVEKEFQVEMFELENKFLQKYKPIWEQRSRIISGQEQPKPEQIAKGQEIVESLNETELLVDEEEKAQNDSEEEQVKGIPSFWLTALENLPIVADTITDRDACVLEYLQDIGLEYLTDGRPGFKLLFRFDSSANPFFTNDILAKTYFYQKELGYSGDFIYDHAEGAEISWKDNAHNVTVDLEMRKQRNKTTKQVRTIEKITPIESFFNFFDPPKIQNEDQDEELEEDLEERLALDYSIGEQLKDKLIPRAVDWFTGAALEFEFEEDEEEADEDEDEEEDDDHGLEDDDGESAEEQDDFAGRPEQAPEAKQS
modifications: MTSL spin label (R1) on cysteine 209; deuterated protein
notes: Nap1 of budding yeast, open reading frame, unique cysteine at position 209; also called Nap1 E209C; not shown: His6, N-terminal, cleaved
- stoichiometry N [15]: 2
- stoichiometry N [12]: 4

B11: Nap1 T307R1 (natural protein, budding yeast, UniProt P25293 1-417, looked up)
chain: MSDPIRTKPKSSMQIDNAPTPHNTPASVLNPSYLKNGNPVRAQAQEQDDKIGTINEEDILANQPLLLQSIQDRLGSLVGQDSGYVGGLPKNVKEKLLSLKTLQSELFEVEKEFQVEMFELENKFLQKYKPIWEQRSRIISGQEQPKPEQIAKGQEIVESLNETELLVDEEEKAQNDSEEEQVKGIPSFWLTALENLPIVADTITDRDAEVLEYLQDIGLEYLTDGRPGFKLLFRFDSSANPFFTNDILAKTYFYQKELGYSGDFIYDHAEGAEISWKDNAHNVTVDLEMRKQRNKTTKQVRTIEKICPIESFFNFFDPPKIQNEDQDEELEEDLEERLALDYSIGEQLKDKLIPRAVDWFTGAALEFEFEEDEEEADEDEDEEEDDDHGLEDDDGESAEEQDDFAGRPEQAPEAKQS
modifications: MTSL spin label (R1) on cysteine 307; deuterated protein
notes: Nap1 of budding yeast, open reading frame, unique cysteine at position 307; also called Nap1 T307C; not shown: His6, N-terminal, cleaved
- stoichiometry N [15]: 2
- stoichiometry N [12]: 4
